Assay: label from the status in PepcDB records

Sequence: MIRLGLTSFSEHDYLTGKKRSTLYEYASHLPLVEMDTAYYGIPPKERVAEWVKAVPENFRFVMKVYSGISCQGEWQTYYASEEEMITAFLESMAPLIESKKLFAFLVQFSGTFGCTKENVAYLQKIRHWFKDLPIAIELRNNSWYQPNFVKQMLQFMKENQFSLVIVDEPQIPTNPVPFYPYVTNPNLVLFRFHGRNAAGWLANDAEWRKKRTLYHYNTQEIADLSEAVLKMSQEAKEVGVIFNNNSGGDAAENALQMQKVLNLSYDDLNPKQLDLF
- protein production: not failed

Sequence: MLKNIFKISNIPAVLWGDKSEKIFIAVHGNMSNKEDAVIQIVAEEADRKGYQVLSFDLPEHGERKNDNTPCKVQFCVNELSIIMNYAKEHWKEINVFACSMGAYFSLLAFQNDVIEKALFLSPVVNMERIIENMMKWFNVTPELLQKEMTIETPIGQKLYWDYLCYVKEHPISTWNTDTYIMYGAKDELCEFETINYFTKKHRCELEVMETGEHYLHTEEQLKIFEQWLHKHID
- protein production: failed

Sequence: MTPSPHDLLHCGMNSQDRDETNGDRQRLVRVALGQEDGDLLVRGAQVVQPVTREVYAADVLVAGGRVAAVGPDLPARARRTVQARGAYLAPGFIDGHIHIESSLLTPASFAAAVLPHGTTAVVAEPHEIVNVLGPAGLNWMLGAGRTSGLRVYASAPSCVPASEFEQGGARVDAAQVAEMLARPGVLGLAEMMNYPGVLGGDAGVWDILNAGRRSGKRLDGHAAGLGGRELLAYAAAGLHSDHEATTPEEARERLRAGLWLMVREGSAARNLAALLPVLRDLPRRALLVSDDVSVDELLELGHLDRLLRTCVAGGLHPADAVALVTSQPAEYWGLHDLGVIAPGYHADFVLLRDLQHFGVLETFVGGEEARPGGETPPLPGGGVDLGPGWDGATFDPPAHWPTLQMFPDQIVTGRAAPGSGDARLVVADRYGRGEWSSCWTLGSGLRGGTLGISILHDAHQVALLGGSDADLRAAGRALERLGGGIVLVVDGEVREQLPLPYAGLMTDHAPAEAAAALGRVTAAARLLGCMPAGRL
- protein production: failed

Sequence: MSDLSQLIVAPILLPLITAAIMLLLGEKHRHIKARLNLLSTFSGLAIAACLLLWVRTQGQAASIGVYLPGNWPAPFGIVLVVDHLSALLLTLTGVIGFSALLFARARWDGAGASFHALFQIQLMGLYGAFLTADLFNLFVFFEVLLAASYGLLLHGSGRARVRAGLHYIAINLFASSLFLIGAAMLYGVTGTLNMADLALKIPLVPEADRGLLHAGAAILAMAFLVKAGIWPLNFWLVPAYASASAPVAALFAIMTKVGLYAVLRLWTLLFSGQAGASAHFGGEWLVYGGLVTLAVAAVSILAAQRLERMAALSILVSAGTLLGAVGFAQAALTGAALFYLVNSTLALCALFLLAELVERSRSANEAPLDEEEDAMPPPLESLHPPKGINLDDEQQVVIGQIIPWTMAFLGLSFIACALLIIGMPPLSGFVGKLNLISALFNPLGLGVPAEQPLSAAGWGLVALLILSGLASLIAFGRVGIQRFWKPEERPSPVLRRYECLPIVILLGLCLILSFKAEPLLRYTQDTAASLQAPDAYIKAVMAAQPIPGPTSRDVQVQP
- protein production: failed

Sequence: MPTPPAASSLAAQMGESPAPLYARVKHMIALQIQNGTWPPHHRVPSESELVTQLGFSRMTINRALRELTVEGLLVRMQGVGTFVAEPKSQSALFEVHNIADEIAARGHRHTCKVMVLKEEAAGSERALALDMREGQRVFHSLIVHFENDIPVQIEDRFVNAQVAPDYLKQDFTLQTPYAYLSQVAPLTEGEHVVEAILAEADECKLLQIDAGEPCLLIRRRTWSGRQPVTAARLIHPGSRHRLEGRFTK
- protein production: not failed

Sequence: MHDALRAYIEKYASEKISDADFEEVKKAFTFKRYKKGQFLLQEGEVSKYTAFVLKGSMRQYSVDAKGTEHIIHFGIENWWVGDRESSTMLTPSNYNIDAIEDTEVLLTTSEDLQQLTAALPVIGKMVNTMNQRNFIASQKRIHDALSLTAEERYLELLKNHPDFLQRFPQTMLASYLGITAETYSRIRKKALK
- protein production: not failed

Sequence: MSKGKYIHFDTLVSAKTGDIVAIQDILNQFRGYIISRSLRTAYRSDGSLYQYIDTDVQHKMETDLIEAIYKFEIRLEHHHHHH
- protein production: failed

Sequence: MKTPTFGKREETLTYQTRYAAYIIVSKPENNTMVLVQAPNGAYFLPGGEIEGTETKEEAIHREVLEELGISVEIGCYLGEADEYFYSNHRQTAYYNPGYFYVANTWRQLSEPLERTNTLHWVAPEEAVRLLKRGSHRWAVEKWLAAAS
- protein production: not failed

Sequence: ELALWSPEVKIVELVKDCKGLGFSILDYQDPLDPTRSVIVIRSLVADGVAERSGGLLPGDRLVSVNEYCLDNTSLAEAVEILKAVPPGLVHLGIC
- protein production: not failed

Sequence: MCWPAPPRPSRRSSNGSPLLWQPGGYDRPPPPCRSLPHVCQNFVVRGCLMTISGGTFDPSICEMEPIATPGAIQPHGALMTARADSGRVAHASVNLGEILGLPAASVLGAPIGEVIGRVNEILLREARRSGSETPETIGSFRRSDGQLLHLHAFQSGDYMCLDIEPVRDEDGRLPPGARQSVIETFSSAMTQVELCELAVHGLQLVLGYDRVMAYRFGADGHGEVIAERRRQDLEPYLGLHYPASDIPQIARALYLRQRVGAIADACYRPVPLLGHPELDDGKPLDLTHSSLRSVSPVHLDYMQNMNTAASLTIGLADGDRLWGMLVCHNTTPRIAGPEWRAAAGMIGQVVSLLLSRLGEVENAAETLARQSTLSTLVERLSTGDTLAAAFVAADQLILDLVGASAAVVRLAGQELHFGRTPPVDAMQKVLDSLGRPSPLEVLSLDDVTLRHPELPELLAAGSGILLLPLTSGDGDLIAWFRPEHVQTITWGGNPAEHGTWNPATQRMRPRASFDAWKETVTGRSLPWTSAERNCARELGEAIAAEMAQRTRAELARLRHYDPLTGLANRSYLQERLAQDGQSAAALLFIDLDRFKAVNDSMGHGVGDGLLIEVARSLVATVRPHDLVVRLGGDEFVVLCHRLDAAGIVSLAERLRQVLEQPFEVAGRKCHISASIGIAMADSIGDLDLVRAADIAMYAAKKNGGNRGELFRPSLYEETTQLVELDNDMRGAIESEQFHLVYQPIFALNPETERLVGFEALLRWDHPLHGALQPGIFIPLAERLGHIHAMGNWVLRRAILQLQAFRSAGPELDLKMNVNVSPLQLARPDFLARLADLLAQVPDLPRHALCLEITETSLSDEAVSEALISIRALGVRIAIDDFGTGFSSLACLRRLPVDVAKLDRAFLGGGHTAAQDHRFFAAVTGLVHAADLKVVQEGIETLDQLALVRAAGADFAQGFHLAAPLSIAAALGLIAASRKE
- protein production: failed

Sequence: MPAPAATYERVVYKNPSEYHYMKVCLEFQDCGVGLNAAQFKQLLISAVKDLFGEVDAALPLDILTYEEKTLSAILRICSSGLVKLWSSLTLLGSYKGKKCAFRVIQVSPFLLALSGNSRELVLD
- protein production: not failed

Sequence: MTDQIREHLVSMLVHNKPGVMRKVANLFARRGFNISSITVGESETPGLSRLVIMVKGDDKTIEQIEKQAYKLVEVVKVTPIDPLPENRVEREMALIKVRFDEDKQEIFQLVEIFRGKIIDVSREGAIIEITGARSKVEAFINLLPQKQVEEIARTGIVAMNRWNVKEGEGF
- protein production: not failed

Sequence: MSTASYAFRDNLTMLRRNLLHARRYPSLTLNLLLTPVILLLLFVYVFGNVMSAGINGGHANRADYVDYLVPGILLLTVAMTSLGTAVAVCTDMTEGIMARFRTMAISRASVLIGHVIGSVLQTLMALVLVLGIGLAIGFRPDASPVEWIAAAALMALTSLAMTWLAVGIGLVSPNPEGASNIGTPLVMLPFLSSAFVPVDAMPGWFRWFAEYQPFSPLIETLRGLLLGSGIGTRNAVLAVAWCLGLSLLGYLWSKARFNREPRH
- protein production: failed

Sequence: MDYSQYHVEQTQEITELVTRTFSKSEGVDEGTLIGALIKDLFATTDSDDMFIFVAKDNGKIVGSIFFTRLTFEIDTTAFLLCPVVIDTEYQNKGVGQTLINHGLEVLKQEGVELVFTYGEPKFYERVGFEIVSEEQFKSPIPLSYLYSWLAQSLNDEVLTYIPGRSKCVAALNNLRLW
- protein production: failed

Sequence: MGPDGPPCEISTWKHNSMKQIALSLFVIAASGAYVWDQAGKNPANDMLGEALPADAAEAPTVQPKEPASAAALPVLRTSPAPLDPRFRTRLPIARETTAGIAVPAERPNDPVKQTVVPVAPQPSPAPPAQPVTPAVTDPASSTPSFAVTPAIYIPVPQPRPAYPNAPVRVVRVGMKPAAHGYADGVYTGPTADAYYGIIQIQALVQGGQLTALKVLKYPSDRRTSVNINRQALPMLRDEAISAQSADVDIISGATLTSRAFIQSLRGALKKASSLEHHHHHH
- protein production: failed

Sequence: MGHHHHHHSHADLPQWVSERLLQQINQLTNYEPVIGIMGKTGVGKSSLCNALFAGDISPVSDVAACTREPLRFRLQVGDRYITLMDLPGVGESGARDTEYAALYREQLPRLDLVLWLIKADDRALTVDEHFYHQVIGEVYRHKVLFVISQSDKAEPTSGGGQLSTAQKQNISRKICLLHELFQPVHPVCAVSVRLQWGLKVMAERMIKCLP
- protein production: not failed

Sequence: MGLPSSLESYLLLILLSFLNVSTIYSSKPSKEEAVLFGGNFPAFYVIGDSLVDPGNNNHLPTMIRANYPPYGSDFEGGKATGRFSNGKTIADYIAIYYKLPLVPAYLGLSDDRKDTISTGMNYASAGCGIRRLTGKIAGKCLSLSKQVDLFEETIEKHLKTNFKTPYELREHLAHSLFMTVIGVNDYAFFYTRLTDANDFADELLHKFLKKIEKLHKLGARKFFINNIKPLGCYPNIVAKTVPRGSRRTYKPCYKHLQRKA
- protein production: failed

Sequence: MDFECQFVCELKELAPVPALLIRTQTTMSELGSLFEAGYHDILQLLAGQGKSPSGPPFARYFGMSAGTFEVEFGFPVEGGVEGSGRVVTGLTPSGKAASSLYIGPYGEIEAVYDALMKWVDDNGFDLSGEAYEIYLDNPLEHHHHHH
- protein production: failed

Sequence: MKLKHKRDDKMRFDIKKVLELAEKDFETAWRETRALIKDKHIDNKYPRLKPVYGKPHPVMETIERLRQAYLRMGFEEMINPVIVDEMEIYKQFGPEAMAVLDRCFYLAGLPRPDVGLGNEKVEIIKNLGIDIDEEKKERLREVLHLYKKGAIDGDDLVFEIAKALNVSNEMGLKVLETAFPEFKDLKPESTTLTLRSHMTSGWFITLSSLIKKRKLPLKLFSIDRCFRREQREDRSHLMSYHSASCVVVGEDVSVDDGKVVAEGLLAQFGFTKFKFKPDEKKSKYYTPETQTEVYAYHPKLGEWIEVATFGVYSPIALAKYNIDVPVMNLGLGVERLAMIIYGYEDVRAMVYPQFYEYRLSDRDIAGMIRVDKVPILDEFYNFANELIDICIANKDKESPCSVEVKREFNFNGERRVIKVEIFENEPNKKLLGPSVLNEVYVYDGNIYGIPPTFEGVKEQYIPILKKAKEEGVSTNIRYIDGIIYKLVAKIEEALVSNVDEFKFRVPIVRSLSDINLKIDELALKQIMGENKVIDVRGPVFLNAKVEIK
- protein production: not failed

Sequence: MGVLQRFERRLEGMIEGTFARAFKSELQPVEVASNVQREMDERAAIVAQGRTLVPNDFVVELSASDRERLAVYADNLGQELSKLAREYATEQGYSFVGPVRVRFETADDLQTGRFRVRSAVIRGDTVKDGEIIKPVTDHPRRGSVIPGRPRLLLSPGGAAADGSLTAQGAQQAYELTSEVTLLGRGTDCDLRLVDNGVSRHHAEIRLEGNEAILVDLNSTNGTFVNGQQVQRARLVDGSRISLGRTTMTFRRD
- protein production: failed

Sequence: MGHHHHHHSHMNSAEQTVTWLITLGVLESPKKTISDPEGFLQASLKDGVVLCRLLERLLPGTIEKVYPEPRSESECLSNIREFLRGCGASLRLELLFPPSQPPQHLVTTILLSASTFDANDLYQGQNFNKVLSSLVTLNKVTADIGLGSDSVCARPSSHRIKSFDSLGSQSLHTR
- protein production: failed

Sequence: MGQTAFVVKTESYRLLWDCITYLDETTITKIKELGGLDAIALSHPHYYSTQVEWAETFDVPIYIHEDDKEWVMRPSSRIIYWSGESLQLADGITVHRLGGHFSGGSVLHWEEGNDGKGILLTGDIIQVVADERWVSFMYSYPNLIPLPARKVEEMVNRVKPLQFNRLYNAFHRVVKLEHHHHHH
- protein production: not failed

Sequence: MSGVILGRYWGGLSQLIYVIIGAAGVPWFADMSGGPEVLLGATGGYLLGFILAALLLGHFVDRHIRARKFTPMLGLMTIANFGLIYIPGLVVLGLWSLKTQGTLPGPWELLVMGLLPFIPGDILKITGAAALTRAITPKEPYGEEIDIQKAEGWRVP
- protein production: failed
